Test results from article PMC11190147, “Structures of the Staphylococcus aureus ribosome inhibited by fusidic acid and fusidic acid cyclopentane” (Scientific Reports, 2024).

B1: Staphylococcus aureus ribosomal protein uL6 (natural protein, S. aureus NCTC 8325-4 (endogenous), UniProt Q2FW21 1-178, looked up)
chain: MSRVGKKIIDIPSDVTVTFDGNHVTVKGPKGELSRTLNERMTFKQEENTIEVVRPSDSKEDRTNHGTTRALLNNMVQGVSQGYVKVLELVGVGYRAQMQGKDLILNVGYSHPVEIKAEENITFSVEKNTVVKVEGISKEQVGALASNIRSVRPPEPYKGKGIRYQGEYVRRKEGKTGK
notes: Large-subunit ribosomal protein uL6 of S. aureus, encoded by rplF, as it stands in the native 70S ribosome; Present as a subunit of the 70S ribosome, not as an isolated protein; source: endogenous, in 70S ribosomes purified from S. aureus NCTC 8325-4 (sucrose cushions, zonal centrifugation)

Key:
[1] = biological target: Staphylococcus aureus 70S ribosome (S. aureus NCTC 8325-4 (endogenous)) (UniProt Q2FW21); assay: cryo-EM structure; FA complex: 0.5 uM S. aureus 70S, 2 uM mRNA Z4AUGGCA, 2 uM E. coli tRNAfMet, 5 uM S. aureus EF-G, 400 uM FA, 1 mM GTP in HEPES polymix buffer (20 mM HEPES pH 7.5, 5 mM BME), 10 min steps at 37 °C; 1 ul of 25 uM FusB with 400 uM FA mixed into the drop on the grid; CHI state 2.5 Å (modelled), POST state 3.1 Å (not modelled)
[2] = biological target: Staphylococcus aureus 70S ribosome (S. aureus NCTC 8325-4 (endogenous)) (UniProt Q2FW21); assay: cryo-EM structure; FA-CP complex: as the FA complex but with 5 uM E. coli tRNAfMet and 400 uM FA-CP instead of FA; CHI state 2.0 Å, POST state 2.4 Å
[3] = biological target: T1, Staphylococcus aureus elongation factor G (Staphylococcus aureus, UniProt P68790 1-693); assay: cryo-EM structure; FA complex: 0.5 uM S. aureus 70S, 2 uM mRNA Z4AUGGCA, 2 uM E. coli tRNAfMet, 5 uM S. aureus EF-G, 400 uM FA, 1 mM GTP in HEPES polymix buffer (20 mM HEPES pH 7.5, 5 mM BME), 10 min steps at 37 °C; 1 ul of 25 uM FusB with 400 uM FA mixed into the drop on the grid; CHI state 2.5 Å (modelled), POST state 3.1 Å (not modelled); settings: both partners purified
T1 construct: Ser-Leu that remains at the N-terminus after TEV cleavage of the 6xHis tag and linker; In the complexes EF-G carries GDP, magnesium and FA or FA-CP; also called EF-G; S. aureus EF-G; source: E. coli BL21 (DE3), purified (Ni Sepharose, TEV cleavage, reverse IMAC, Superdex-200 gel filtration); not shown: 6xHis, N-terminal, cleaved

Row | Molecule | percent of ribosomes bound to EF-G [1] | percent of 70S particles that contain EF-G [2] | binding result [3]
1 | Staphylococcus aureus elongation factor G (from UniProt P68790 1-693) (natural protein) | 60% | 72% | –
2 | B1 | – | – | binds
